In the supplement of paper PMC9112550, “Optimization of the antimicrobial peptide Bac7 by deep mutational scanning” (BMC Biology, 2022):

Tested on: Escherichia coli TOP10
Assay: shrunken log2 fold change of peptide-encoding DNA abundance (4.5 h post-induction vs induction); higher = less antimicrobial activity (less host growth inhibition)
Conditions: time post-induction: 4.5 h; library: site-saturation at positions 5, 18, 19, 20
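Further: peptides expressed intracellularly from a pBAD plasmid library in pooled LB shake-flask culture, induced with 0.3% L-arabinose, DNA abundance read by NGS, three biological replicates, DESeq2 with apeglm shrinkage.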

RRIRERPPRLPRPRPRPDLHPRP
shrunken log2 fold change: -0.262

RRIRSRPPRLPRPRPRPHVMPRP
shrunken log2 fold change: -0.103

RRIRHRPPRLPRPRPRPHREPRP
shrunken log2 fold change: 0.00911

RRIRLRPPRLPRPRPRPCECPRP
shrunken log2 fold change: 0.202

RRIRERPPRLPRPRPRPPQNPRP
shrunken log2 fold change: 0.232

RRIRGRPPRLPRPRPRPLDSPRP
shrunken log2 fold change: 0.217

RRIRERPPRLPRPRPRPHMKPRP
shrunken log2 fold change: -0.286

RRIRDRPPRLPRPRPRPEISPRP
shrunken log2 fold change: 0.134

RRIRGRPPRLPRPRPRPSETPRP
shrunken log2 fold change: 0.223

RRIRCRPPRLPRPRPRPMPPPRP
shrunken log2 fold change: 0.914

RRIRTRPPRLPRPRPRPACYPRP
shrunken log2 fold change: -0.0845

RRIRMRPPRLPRPRPRPGSHPRP
shrunken log2 fold change: 0.0978

RRIRSRPPRLPRPRPRPETYPRP
shrunken log2 fold change: -0.293

RRIRTRPPRLPRPRPRPYNDPRP
shrunken log2 fold change: -0.00735

RRIRNRPPRLPRPRPRPLANPRP
shrunken log2 fold change: 0.142

RRIRHRPPRLPRPRPRPPMLPRP
shrunken log2 fold change: 0.0935

RRIRCRPPRLPRPRPRPQPLPRP
shrunken log2 fold change: 0.19

RRIRTRPPRLPRPRPRPAEGPRP
shrunken log2 fold change: 0.164

RRIRVRPPRLPRPRPRPKEQPRP
shrunken log2 fold change: -0.0164

RRIRHRPPRLPRPRPRPNWTPRP
shrunken log2 fold change: -0.0102

RRIRNRPPRLPRPRPRPFIIPRP
shrunken log2 fold change: -0.41

RRIRKRPPRLPRPRPRPYAKPRP
shrunken log2 fold change: -0.0729

RRIRPRPPRLPRPRPRPKHGPRP
shrunken log2 fold change: 0.127

RRIRGRPPRLPRPRPRPNQGPRP
shrunken log2 fold change: 0.0411

RRIRQRPPRLPRPRPRPCCRPRP
shrunken log2 fold change: -0.0851

RRIRPRPPRLPRPRPRPRATPRP
shrunken log2 fold change: 0.261

RRIRERPPRLPRPRPRPVSGPRP
shrunken log2 fold change: 0.386

RRIRERPPRLPRPRPRPQCAPRP
shrunken log2 fold change: 0.0306

RRIRHRPPRLPRPRPRPLVYPRP
shrunken log2 fold change: -0.0877

RRIRSRPPRLPRPRPRPHGIPRP
shrunken log2 fold change: -0.273

RRIRMRPPRLPRPRPRPVTRPRP
shrunken log2 fold change: 0.494

RRIRLRPPRLPRPRPRPDFQPRP
shrunken log2 fold change: 0.157

RRIRERPPRLPRPRPRPMWHPRP
shrunken log2 fold change: 0.0749

RRIRKRPPRLPRPRPRPCLYPRP
shrunken log2 fold change: -0.0745

RRIRIRPPRLPRPRPRPDITPRP
shrunken log2 fold change: -0.0982

RRIRVRPPRLPRPRPRPIQQPRP
shrunken log2 fold change: 0.00847

RRIRTRPPRLPRPRPRPKWKPRP
shrunken log2 fold change: -0.0786

RRIRSRPPRLPRPRPRPRSMPRP
shrunken log2 fold change: -0.0644

RRIRCRPPRLPRPRPRPFFSPRP
shrunken log2 fold change: -0.242

RRIRFRPPRLPRPRPRPNFRPRP
shrunken log2 fold change: 0.157

RRIRNRPPRLPRPRPRPLGEPRP
shrunken log2 fold change: -0.0638

RRIRLRPPRLPRPRPRPMNVPRP
shrunken log2 fold change: -0.839

RRIRPRPPRLPRPRPRPIFAPRP
shrunken log2 fold change: 0.33

RRIRFRPPRLPRPRPRPNNRPRP
shrunken log2 fold change: -0.139

RRIRLRPPRLPRPRPRPVHFPRP
shrunken log2 fold change: -0.272

RRIRVRPPRLPRPRPRPWEEPRP
shrunken log2 fold change: -0.317

RRIRTRPPRLPRPRPRPWVAPRP
shrunken log2 fold change: -0.0456

RRIRNRPPRLPRPRPRPSAPPRP
shrunken log2 fold change: 0.0188

RRIRCRPPRLPRPRPRPRACPRP
shrunken log2 fold change: 0.24

RRIRHRPPRLPRPRPRPQGLPRP
shrunken log2 fold change: -0.247

RRIRPRPPRLPRPRPRPRHVPRP
shrunken log2 fold change: 0.0494

RRIRDRPPRLPRPRPRPVGFPRP
shrunken log2 fold change: 0.859

RRIRGRPPRLPRPRPRPYDPPRP
shrunken log2 fold change: -0.0783

RRIRSRPPRLPRPRPRPFFNPRP
shrunken log2 fold change: 0.00333

RRIRRRPPRLPRPRPRPLADPRP
shrunken log2 fold change: 0.311

RRIRHRPPRLPRPRPRPFEKPRP
shrunken log2 fold change: -0.0199

RRIRDRPPRLPRPRPRPVICPRP
shrunken log2 fold change: 0.0219

RRIRWRPPRLPRPRPRPAFRPRP
shrunken log2 fold change: -0.015

RRIRHRPPRLPRPRPRPYVFPRP
shrunken log2 fold change: -0.508

RRIRPRPPRLPRPRPRPLLAPRP
shrunken log2 fold change: 1.42

RRIRRRPPRLPRPRPRPNVRPRP
shrunken log2 fold change: -0.0448

RRIRCRPPRLPRPRPRPDTLPRP
shrunken log2 fold change: -0.96

RRIRMRPPRLPRPRPRPVLRPRP
shrunken log2 fold change: 0.106

RRIRNRPPRLPRPRPRPGLKPRP
shrunken log2 fold change: 0.265

RRIRHRPPRLPRPRPRPKADPRP
shrunken log2 fold change: 0.117

RRIRCRPPRLPRPRPRPLSIPRP
shrunken log2 fold change: -0.917

RRIRPRPPRLPRPRPRPCRPPRP
shrunken log2 fold change: -0.168

RRIRSRPPRLPRPRPRPEMEPRP
shrunken log2 fold change: 0.00902

RRIRQRPPRLPRPRPRPNHCPRP
shrunken log2 fold change: -0.0615

RRIRDRPPRLPRPRPRPVRNPRP
shrunken log2 fold change: 0.282

RRIRDRPPRLPRPRPRPDDKPRP
shrunken log2 fold change: 0.0802

RRIRRRPPRLPRPRPRPFGIPRP
shrunken log2 fold change: 0.0306

RRIRFRPPRLPRPRPRPVSNPRP
shrunken log2 fold change: -0.0552

RRIRSRPPRLPRPRPRPNYDPRP
shrunken log2 fold change: -0.247

RRIRQRPPRLPRPRPRPPIRPRP
shrunken log2 fold change: -0.0146

RRIRHRPPRLPRPRPRPLQMPRP
shrunken log2 fold change: -0.147

RRIRRRPPRLPRPRPRPERDPRP
shrunken log2 fold change: 0.423

RRIRMRPPRLPRPRPRPDVDPRP
shrunken log2 fold change: 0.104

RRIRERPPRLPRPRPRPWCYPRP
shrunken log2 fold change: -0.947

RRIRDRPPRLPRPRPRPVDPPRP
shrunken log2 fold change: 0.0517

RRIRTRPPRLPRPRPRPIELPRP
shrunken log2 fold change: -0.0636

RRIRKRPPRLPRPRPRPMTFPRP
shrunken log2 fold change: -0.00803

RRIRNRPPRLPRPRPRPRPRPRP
shrunken log2 fold change: 0.586

RRIRDRPPRLPRPRPRPKNRPRP
shrunken log2 fold change: 0.0678

RRIRNRPPRLPRPRPRPHHGPRP
shrunken log2 fold change: -0.00683

RRIRPRPPRLPRPRPRPHLVPRP
shrunken log2 fold change: -0.034

RRIRIRPPRLPRPRPRPNWWPRP
shrunken log2 fold change: 0.159

RRIRERPPRLPRPRPRPVWQPRP
shrunken log2 fold change: 0.123

RRIRPRPPRLPRPRPRPFHIPRP
shrunken log2 fold change: -0.161

RRIRSRPPRLPRPRPRPFRCPRP
shrunken log2 fold change: -0.148

RRIRERPPRLPRPRPRPQNKPRP
shrunken log2 fold change: -0.64

RRIRGRPPRLPRPRPRPKVLPRP
shrunken log2 fold change: 0.177

RRIRQRPPRLPRPRPRPPAEPRP
shrunken log2 fold change: 0.589

RRIRARPPRLPRPRPRPASHPRP
shrunken log2 fold change: 2.2

RRIRRRPPRLPRPRPRPHKNPRP
shrunken log2 fold change: 0.126

RRIRGRPPRLPRPRPRPEKWPRP
shrunken log2 fold change: -0.0809

RRIRCRPPRLPRPRPRPPAYPRP
shrunken log2 fold change: 0.176

RRIRQRPPRLPRPRPRPNIYPRP
shrunken log2 fold change: -0.153

RRIRWRPPRLPRPRPRPVIRPRP
shrunken log2 fold change: 0.0511

RRIRQRPPRLPRPRPRPQIPPRP
shrunken log2 fold change: -0.214

RRIRGRPPRLPRPRPRPFSAPRP
shrunken log2 fold change: 0.0503

RRIRYRPPRLPRPRPRPCPFPRP
shrunken log2 fold change: -0.0574

RRIRQRPPRLPRPRPRPFWKPRP
shrunken log2 fold change: -0.0968

RRIRMRPPRLPRPRPRPWAWPRP
shrunken log2 fold change: -0.0978

RRIRYRPPRLPRPRPRPGKCPRP
shrunken log2 fold change: -0.264

RRIRTRPPRLPRPRPRPSAHPRP
shrunken log2 fold change: -0.229

RRIRSRPPRLPRPRPRPNLQPRP
shrunken log2 fold change: -0.141

RRIRSRPPRLPRPRPRPLWDPRP
shrunken log2 fold change: -0.134

RRIRSRPPRLPRPRPRPYPGPRP
shrunken log2 fold change: -0.199

RRIRIRPPRLPRPRPRPICMPRP
shrunken log2 fold change: -0.407

RRIRRRPPRLPRPRPRPYSLPRP
shrunken log2 fold change: -0.0861

RRIRSRPPRLPRPRPRPAAQPRP
shrunken log2 fold change: 0.833

RRIRHRPPRLPRPRPRPLVWPRP
shrunken log2 fold change: 0.482

RRIRLRPPRLPRPRPRPCPEPRP
shrunken log2 fold change: -0.0401

RRIRTRPPRLPRPRPRPHDLPRP
shrunken log2 fold change: -0.0128

RRIRVRPPRLPRPRPRPDSPPRP
shrunken log2 fold change: 0.0663

RRIRSRPPRLPRPRPRPLMGPRP
shrunken log2 fold change: -0.271

RRIRKRPPRLPRPRPRPIMWPRP
shrunken log2 fold change: 0.0599

RRIRRRPPRLPRPRPRPDTSPRP
shrunken log2 fold change: 0.0612

RRIRGRPPRLPRPRPRPYRNPRP
shrunken log2 fold change: -0.39

RRIRARPPRLPRPRPRPNMVPRP
shrunken log2 fold change: -0.175

RRIRRRPPRLPRPRPRPPDHPRP
shrunken log2 fold change: 0.762

RRIRSRPPRLPRPRPRPYIYPRP
shrunken log2 fold change: -0.778

RRIRPRPPRLPRPRPRPILKPRP
shrunken log2 fold change: -0.14

RRIRQRPPRLPRPRPRPSEAPRP
shrunken log2 fold change: 0.17

RRIRHRPPRLPRPRPRPGGTPRP
shrunken log2 fold change: 0.0131

RRIRGRPPRLPRPRPRPLEIPRP
shrunken log2 fold change: 0.428

RRIRVRPPRLPRPRPRPTYRPRP
shrunken log2 fold change: -0.594

RRIRMRPPRLPRPRPRPDWMPRP
shrunken log2 fold change: -0.0455

RRIRRRPPRLPRPRPRPGREPRP
shrunken log2 fold change: -0.0226

RRIRHRPPRLPRPRPRPFHQPRP
shrunken log2 fold change: -0.01

RRIRNRPPRLPRPRPRPKVNPRP
shrunken log2 fold change: 0.0323

RRIRQRPPRLPRPRPRPMRIPRP
shrunken log2 fold change: -0.0249

RRIRERPPRLPRPRPRPSPMPRP
shrunken log2 fold change: -0.0654

RRIRVRPPRLPRPRPRPYSPPRP
shrunken log2 fold change: -0.181

RRIRIRPPRLPRPRPRPLIHPRP
shrunken log2 fold change: -0.556

RRIRARPPRLPRPRPRPGNTPRP
shrunken log2 fold change: -0.0858

RRIRTRPPRLPRPRPRPNKDPRP
shrunken log2 fold change: -0.54

RRIRARPPRLPRPRPRPHRIPRP
shrunken log2 fold change: -0.145

RRIRKRPPRLPRPRPRPFRVPRP
shrunken log2 fold change: -0.035

RRIRDRPPRLPRPRPRPYSMPRP
shrunken log2 fold change: -0.0516

RRIRQRPPRLPRPRPRPIAAPRP
shrunken log2 fold change: 0.269

RRIRFRPPRLPRPRPRPFPQPRP
shrunken log2 fold change: -0.173

RRIRHRPPRLPRPRPRPMMIPRP
shrunken log2 fold change: 0.00431

RRIRCRPPRLPRPRPRPMVAPRP
shrunken log2 fold change: 0.0319

RRIRWRPPRLPRPRPRPDFRPRP
shrunken log2 fold change: 0.169

RRIRVRPPRLPRPRPRPYGSPRP
shrunken log2 fold change: -0.409

RRIRIRPPRLPRPRPRPQFSPRP
shrunken log2 fold change: -0.371

RRIRPRPPRLPRPRPRPEFNPRP
shrunken log2 fold change: 0.0717

RRIRVRPPRLPRPRPRPLPHPRP
shrunken log2 fold change: 0.0915
